PMC3060787
Read-outs that look alike come from different tables or passages of the source.

How the values were obtained:
Assay in all cases: smFRET
Taq MutS(C42A,T469C)-Cy3 [1] = molecular target: T1, Taq MutS(C42A,T469C)-Cy3 (Thermus aquaticus, UniProt Q56215 1-811, C42A;T469C)
T1 sequence: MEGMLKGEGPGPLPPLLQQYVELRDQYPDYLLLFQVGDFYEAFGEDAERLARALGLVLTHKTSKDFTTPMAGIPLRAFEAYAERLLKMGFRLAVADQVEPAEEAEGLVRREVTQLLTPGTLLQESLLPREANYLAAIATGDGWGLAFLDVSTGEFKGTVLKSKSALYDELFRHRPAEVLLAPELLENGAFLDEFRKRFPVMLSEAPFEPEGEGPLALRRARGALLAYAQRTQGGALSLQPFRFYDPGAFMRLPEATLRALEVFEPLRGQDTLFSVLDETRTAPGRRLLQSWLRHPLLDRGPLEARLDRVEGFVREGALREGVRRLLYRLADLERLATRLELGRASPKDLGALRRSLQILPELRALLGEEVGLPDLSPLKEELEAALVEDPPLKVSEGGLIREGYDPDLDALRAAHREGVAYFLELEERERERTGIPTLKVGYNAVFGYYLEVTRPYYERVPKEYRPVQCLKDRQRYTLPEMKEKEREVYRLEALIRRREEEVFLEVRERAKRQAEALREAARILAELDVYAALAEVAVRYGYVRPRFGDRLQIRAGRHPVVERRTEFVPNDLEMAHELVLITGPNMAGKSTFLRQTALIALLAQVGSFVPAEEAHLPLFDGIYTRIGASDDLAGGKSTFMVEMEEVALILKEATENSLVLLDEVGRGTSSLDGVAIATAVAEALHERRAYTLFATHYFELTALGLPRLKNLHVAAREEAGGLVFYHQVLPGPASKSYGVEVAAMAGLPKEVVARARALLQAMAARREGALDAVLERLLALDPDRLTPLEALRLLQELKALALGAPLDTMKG

Taq MutS(C42A,T469C)-Cy3 [2] = molecular target: T1, Taq MutS(C42A,T469C)-Cy3; remark: listed apart in the source
Taq MutS(C42A,T469C)-Cy3 [3] = molecular target: T1, Taq MutS(C42A,T469C)-Cy3; remark: listed apart in the source
Taq MutS(C42A,T469C)-Cy3 [4] = molecular target: T1, Taq MutS(C42A,T469C)-Cy3; remark: listed apart in the source

B1: 100 bp duplex (dsDNA)
DNA 1: GTTACCGATACGATACGAATAGGCATATCTGCACGTTTCTCACGAGGCGCCGCTAGACTGATCTGGAGCTTAATTGCCTGCCGGAGCTAAAGACGTTCCA
DNA 2: TGGAACGTCTTTAGCTCCGGCAGGCAATTAAGCTCCAGATCAGTCTAGCGGCGCCTCGTGAGAAACGTGCAGATATGCCTATTCGTATCGTATCGGTAAC
modifications: amino-C6 dT (Cy5 site)
binding result (Taq MutS(C42A,T469C)-Cy3 [1]): binds

B2: 100 bp +dT mismatch DNA (100/101 nt) (dsDNA)
DNA 1: GTTACCGATACGATACGAATAGGCATATCTGCACGTTTCTCACGAGGCGCCGCTAGACTGATCTGGAGCTTAATTGCCTGCCGGAGCTAAAGACGTTCCA
DNA 2: TGGAACGTCTTTAGCTCCGGCAGGCAATTAAGCTCCAGATCAGTCTAGCGTGCGCCTCGTGAGAAACGTGCAGATATGCCTATTCGTATCGTATCGGTAAC
modifications: amino-C6 dT (Cy5 site)
binding result (Taq MutS(C42A,T469C)-Cy3 [1]): binds

B3: 74 bp duplex, both ends blocked (dsDNA)
DNA 1: ATTCAGCTGTACCCAATTCACTCTACGACGAGGCGTCGCTAGCGTCGCATCCTGCTGTAAGTTTCATGTCCACC
DNA 2: GGTGGACATGAAACTTACAGCAGGATGCGACGCTAGCGACGCCTCGTCGTAGAGTGAATTGGGTACAGCTGAAT
modifications: amino-C6 dT (Cy5 site)
Kd (Taq MutS(C42A,T469C)-Cy3 [2]): 128 ± 12 nM

B4: +dT mismatch DNA with dT10 ssDNA tail (74/85 nt) (dsDNA)
DNA 1: ATTCAGCTGTACCCAATTCACTCTACGACGAGGCGTCGCTAGCGTCGCATCCTGCTGTAAGTTTCATGTCCACC
DNA 2: TTTTTTTTTTGGTGGACATGAAACTTACAGCAGGATGCGACGCTAGCGTACGCCTCGTCGTAGAGTGAATTGGGTACAGCTGAAT
modifications: amino-C6 dT (Cy5 site)
binding result (Taq MutS(C42A,T469C)-Cy3 [3]): binds

B5: +dT mismatch DNA (74/75 nt), both ends blocked (dsDNA)
DNA 1: ATTCAGCTGTACCCAATTCACTCTACGACGAGGCGTCGCTAGCGTCGCATCCTGCTGTAAGTTTCATGTCCACC
DNA 2: GGTGGACATGAAACTTACAGCAGGATGCGACGCTAGCGTACGCCTCGTCGTAGAGTGAATTGGGTACAGCTGAAT
modifications: amino-C6 dT (Cy5 site, nt 45 from 5' biotin)
Kd (Taq MutS(C42A,T469C)-Cy3 [4]): 16.2 ± 2.1 nM
